For 2 substances, IC50 and Kd results are on record in publication PMC4538835.

Holding throughout (assay): fluorescence polarisation
For test [1], the target named is MED25 ACID/PTOV domain (residues 391 to 548) (human) (UniProt Q71SY5).
For test [2], the target named is TAMRA-labelled ERM_(38–68) (human) (UniProt P41161).
The target in test [3] is TAMRA-labelled ERM_(38–68) W57L (human) (UniProt P41161).
Test [4] has as its target TAMRA-labelled ERM_(38–68) F47L/W57L (human) (UniProt P41161).

Usually IC50 stands for the concentration that inhibits the measured activity by half. Lower therefore signals greater potency. By Kd is commonly meant the concentration at which binding is half-saturated. Low values mean tighter binding, high ones weaker binding.

Regarding “ERM_(38–68) peptide (unlabelled by dye) (from UniProt P41161 38-68)”, the IC50 in test [1] was 1.5 µM.
Consider “MED25 ACID/PTOV domain (residues 391 to 548) (from UniProt Q71SY5 391-548) (domain or fragment)”, for which the results for the Kd in test [2], in test [3] and in test [4] were 0.6 µM, 4.8 µM and 8.3 µM, respectively.
